{"source": "patent US20070016969", "biological_target": "hirudin in milk of BC1-GB-Hir transgenic mice (UniProt P01050)", "sequence (P01050 whole entry)": "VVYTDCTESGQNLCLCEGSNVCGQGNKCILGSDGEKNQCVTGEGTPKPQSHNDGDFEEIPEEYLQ"}
{"substance": "thrombin (thrombin solution, 50 U/ml)", "values": [{"measurement": "anti-coagulation activity (chromogenic thrombin substrate Tos-Gly-Pro-Arg-4-NA, A405)", "value": "milk collected from lactating transgenic mice of the invention has a high level of anti-coagulation activity in comparison with that from non-transgenic mice (normal mouse milk)"}]}
